Among the data in patent US20040157327A1 are apoptotic nuclei and percentage of PC12 cells that were eGFP+, 48 hours post-transfection/induction values, retold here.

The target in this assay is Pablo, full length (pro-apoptotic Bcl-xL binding protein) (human) (UniProt Q92558). Put plainly: cell-based or functional assay.
UniProt Q92558, sequence (Q92558 whole entry): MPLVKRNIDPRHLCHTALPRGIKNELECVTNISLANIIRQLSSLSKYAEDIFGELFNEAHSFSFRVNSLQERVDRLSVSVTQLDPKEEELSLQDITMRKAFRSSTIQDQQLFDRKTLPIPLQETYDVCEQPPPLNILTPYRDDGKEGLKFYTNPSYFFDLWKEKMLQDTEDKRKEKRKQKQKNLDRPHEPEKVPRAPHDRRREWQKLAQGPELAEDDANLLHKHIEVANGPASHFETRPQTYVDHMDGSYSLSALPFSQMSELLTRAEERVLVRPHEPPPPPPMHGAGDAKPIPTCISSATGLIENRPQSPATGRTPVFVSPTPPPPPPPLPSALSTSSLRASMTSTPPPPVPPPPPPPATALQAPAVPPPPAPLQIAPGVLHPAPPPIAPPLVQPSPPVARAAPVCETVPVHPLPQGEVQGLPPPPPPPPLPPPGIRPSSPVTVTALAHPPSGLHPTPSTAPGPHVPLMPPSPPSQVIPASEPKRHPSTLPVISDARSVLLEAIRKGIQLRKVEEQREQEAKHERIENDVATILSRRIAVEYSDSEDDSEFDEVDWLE

Bcl-xL-eGFP (from UniProt Q07817 1-233) yielded an apoptotic nuclei at 48 hours post-transfection/induction (PC12-Pablo cells, Hoechst stain) of 3.5% and a percentage of PC12 cells that were eGFP+, 48 hours post-transfection/induction of 14%.
